T1: monkey GUCY2C-rCD4 fusion protein (Macaca fascicularis (crab-eating …, limits assumed))
T1 construct: Prepared by the same method as the human antigen; also called Cy-GUCY2C-rCD4; monkey GUCY2C recombinant antigen
T1 chain: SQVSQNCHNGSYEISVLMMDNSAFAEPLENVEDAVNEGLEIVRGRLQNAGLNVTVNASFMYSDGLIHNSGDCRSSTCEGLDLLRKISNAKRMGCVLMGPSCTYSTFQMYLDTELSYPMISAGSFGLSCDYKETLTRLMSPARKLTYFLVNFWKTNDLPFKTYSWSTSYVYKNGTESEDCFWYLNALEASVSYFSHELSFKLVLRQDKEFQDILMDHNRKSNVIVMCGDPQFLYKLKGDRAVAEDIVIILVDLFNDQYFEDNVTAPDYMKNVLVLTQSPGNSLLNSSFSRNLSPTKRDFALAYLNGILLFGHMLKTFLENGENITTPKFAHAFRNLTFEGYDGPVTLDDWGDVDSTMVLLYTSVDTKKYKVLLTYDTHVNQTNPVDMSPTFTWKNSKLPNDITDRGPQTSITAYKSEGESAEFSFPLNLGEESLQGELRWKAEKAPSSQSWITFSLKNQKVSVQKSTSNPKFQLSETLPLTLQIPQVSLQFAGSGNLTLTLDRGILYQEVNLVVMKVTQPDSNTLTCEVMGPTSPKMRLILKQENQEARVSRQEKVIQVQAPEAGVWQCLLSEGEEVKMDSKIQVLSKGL

T2: mouse GUCY2C-rCD4 fusion protein (Mus musculus (house mouse); Rattus …, limits assumed)
T2 construct: Prepared by the same method as the human antigen; also called Mu-GUCY2C-rCD4; murine GUCY2C recombinant antigen
T2 chain: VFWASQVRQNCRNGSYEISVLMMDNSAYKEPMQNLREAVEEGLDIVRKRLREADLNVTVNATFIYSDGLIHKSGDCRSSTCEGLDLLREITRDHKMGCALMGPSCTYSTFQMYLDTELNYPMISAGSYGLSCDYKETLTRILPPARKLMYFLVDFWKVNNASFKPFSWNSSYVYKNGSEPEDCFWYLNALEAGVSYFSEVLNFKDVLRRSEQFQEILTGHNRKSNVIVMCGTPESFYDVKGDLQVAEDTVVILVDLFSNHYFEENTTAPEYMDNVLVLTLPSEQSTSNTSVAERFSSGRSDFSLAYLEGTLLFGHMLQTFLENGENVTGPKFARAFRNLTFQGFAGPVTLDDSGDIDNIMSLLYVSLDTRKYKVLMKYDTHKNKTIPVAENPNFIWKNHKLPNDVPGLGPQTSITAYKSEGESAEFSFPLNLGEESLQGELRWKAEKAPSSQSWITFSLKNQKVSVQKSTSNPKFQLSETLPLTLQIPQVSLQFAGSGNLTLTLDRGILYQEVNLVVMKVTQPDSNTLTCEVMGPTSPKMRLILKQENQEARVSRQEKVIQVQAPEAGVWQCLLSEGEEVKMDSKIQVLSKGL


Experiments:
[1] = target: T3, human GUCY2C-rCD4 fusion protein (Homo sapiens (human); Rattus norvegicus, biotinylated (site not given)); test: SPR (Sierra SPR-32), scFv on protein G, antigen 800-12.5 nM, 25 C
T3 construct: GUCY2C conjugated/fused with CD4; also called Hu-GUCY2C-rCD4; human GUCY2C recombinant antigen
Experimental: Furthermore, the affinity to the GUCY2C antigen of the 18 kinds of scFvs produced in Example 1 was measured by SPR (Surface plasmon resonance) analysis.
SPR assay was performed with association time 2 min and dissociation time 10 min under the condition of 25 degrees of Celsius using MASS2 (Sierra SPR-32; Bruker). The data were analyzed with Software R3.

[2] = target: T3, human GUCY2C-rCD4 fusion protein; test: ELISA (DELFIA), antigen on streptavidin plate, scFv culture solution, Eu-anti-tag Ab
Experimental: (§1) More specifically, GUCY2C-rCD4 fusion protein, in which the prepared human GUCY2C (SEQ ID NO: 112), monkey GUCY2C (SEQ ID NO: 114), and mouse GUCY2C (SEQ ID NO: 113) were fused, respectively, was bound to a place coated with streptavidin in a Nunc Maxisorp™96 well plate. After removing all the synthetic proteins not combined with washing buffer, the anti-GUCY2C scFV obtained in the culture solution was incubated in each well. After that, the affinity was measured by reading signals DELFIA enhanced using Eu-anti-tag Ab.

[3] = target: T1, monkey GUCY2C-rCD4 fusion protein; test: as above
Experimental: as §1

[4] = target: T3, human GUCY2C-rCD4 fusion protein; test: ranking ELISA (DELFIA), 5 nM scFv on anti-FLAG, biotinylated antigen, streptavidin-Eu
Experimental: (§2) More specifically, after coating an anti-FLAG antibody in a MaxiSorb plate and binding by adding scFvs obtained previously, the remaining scFvs were removed by a washing process. Here, a biotinylated human-GUCY2C-rCD4 protein was incubated and combined, and then the affinity to the antigen was measured by reading signals by DELFIA enhancement with color development through streptavidin-Europlum.

[5] = target: T3, human GUCY2C-rCD4 fusion protein; test: ranking ELISA (DELFIA), 50 nM scFv on anti-FLAG, biotinylated antigen, streptavidin-Eu
Experimental: as §2

[6] = target: T4, GUCY2C on the cell surface (T84 colon carcinoma cells; HT29-GUCY2C cells) (human, UniProt P25092 24-1073); test: flow cytometry on T84 cells, median MFI on live singlet cells (IgG-Fc-PE signal), scFv(-Fc) at 10 ug/mL
T4 construct: whole, on cells; also called GUCY2C expressing T84 cells; HT29 GCC cells
Experimental: (§3) Using cells naturally expressing GUCY2C, whether 18 kinds of scFvs produced in Example 1 could actually detect GUCY2C expression on the cell surface was confirmed. For this, a GUCY2C positive cancer cell, T84 colon carcinoma cell (ATCC® CCL248™) was used.
(§4) After separating the two cell lines using trypsin-EDTA, they were placed in FACS buffer (1×PBS+2% BSA). 10 ug/mL of each of the 18 kinds of scFvs and positive control group, 5F9 scFv was cultured with T84 and T-47D cells on ice for 1 hour. The scFv combined to cells was detected using 5 ug/mL IgG-Fc-PE Ab (BioLegend; 409304). The cells were cultured with ToPro®3 (live/dead stain) and then red with a flow cytometer.

[7] = target: T4, GUCY2C on the cell surface (T84 colon …); test: flow cytometry, scFv(-Fc) at 10 ug/mL on GUCY2C-positive T84 cells, detected with IgG-Fc-PE Ab (FL2-H)
Experimental: as §3, §4

[8] = target: T3, human GUCY2C-rCD4 fusion protein; test: ranking ELISA (DELFIA), 5 nM scFv on anti-FLAG, biotinylated antigen, streptavidin-Eu; affinity ranking ELISA, 5 nM: binds
Experimental: as §2

[9] = target: T3, human GUCY2C-rCD4 fusion protein; test: ranking ELISA (DELFIA), 50 nM scFv on anti-FLAG, biotinylated antigen, streptavidin-Eu; affinity ranking ELISA, 50 nM: binds
Experimental: as §2

[10] = target: T3, human GUCY2C-rCD4 fusion protein; test: ELISA (DELFIA), antigen on streptavidin plate, scFv culture solution, Eu-anti-tag Ab; binding ELISA, Hu-GUCY2C-rCD4 antigen: binds
Experimental: as §1

[11] = target: T2, mouse GUCY2C-rCD4 fusion protein; test: ELISA (DELFIA), antigen on streptavidin plate, scFv culture solution, Eu-anti-tag Ab
Experimental: as §1

Binder | Kd [1] | Binding ELISA signal [2] | Binding ELISA signal [3] | Affinity Ranking ELISA (5 nM) signal [4] | Affinity Ranking ELISA (50 nM) signal [5] | binding result [6] | binding result [7] | Affinity Ranking ELISA (5 nM) signal [8] | Affinity Ranking ELISA (50 nM) signal [9] | Binding ELISA signal [10] | Binding ELISA signal [11]
scFv B11 (scFv, also called 2437_02_G07; G07) scFv: QVQLVESGAEVKKPGSSVKVSCKASGGTFSSYAISWVRQAPGQGLEWMGGIIPIFGTANYAQKFQGRVTITADESTSTAYMELSGLRSEDTAVYYCARGIQPLRYYGMDVWGQGTLVTVSSGGGGSGGGGSGGGASQSALTQPPSASGTPGQRVTISCSGSSSNIGSNYVYWYQQLPGTAPKLLIYRNNQRPSGVPDRFSGSKSGTSASLAISGLRSEDEADYYCAAWDDSLSGRGVFGGGTQLTVL | 1330 nM | 37500 | 23600 | 14800 | 89600 | binds | – | – | – | – | –
scFv B01 (scFv, also called 2433_01_H07; H07) scFv: EVQLVQPGAEVKKPGSSVKVSCKASGGTLSSYAISWVRQAPGQGLEWMGRIIPILGITNYAQKFQGRVTITADKSTSTAYMELSSLRSEDTAVYFCARDQRPASMDVWGQGTLVTVSSGGGGSGGGGSGGGASQSGLTQPASVSGSPGQSITISCTGTSSDVGGYNYVSWYQQHPGKAPKLMIYEVSNRPSGVSNRFSGSKSGNTASLTISGLQAEDEADYYCSTVTSLSTYVFGTGTKLTVL | 335 nM | 39400 | 4490 | 26200 | 133000 | – | binds | – | – | – | –
scFv B12 (scFv, also called 2437_02_G10) scFv: QVQLVESGGGLVKPGGSLRLSCAASGFTFSSYSMNWVRQAPGKGLEWVSVIYSGGSTHYADSVKGRFTISRHNSKNTLYLQMNSLRAEDTAVYYCARGAGTLNAFDIWGQGTTVTVSSGGGGSGGGGSGGGASQSGLTQPPSTSGSPGQSVTISCTGTSSDVGAYSYVSWYQQHPGKAPKLLIYAVTKRPSGVPDRFSGSKSGNTASLTVSGLQDEDEADYYCSSFAGGSTLVFGGGTKLTVL | 4540 nM | 30900 | 22100 | 9590 | 77100 | – | binds | – | – | – | –
scFv A01 (scFv, also called 2426_01_A02) scFv: QVQLVQSGAEVKKPGASVKVSCKASGYTFTSYYMHWVRQAPGQGLEWMGIINPSGGSTSYAQEFQGRVTMTRDTSTSTVYMELSSLRSEDTAVYYCARDGQWLQFDYWGQGTLVTVSSGGGGSGGGGSGGGASDIVMTQSPLSLPVTLGQPASISCRSSQSLLKKSDGNTYLSWYHQRPGQSPRRLIYKVSNRDSGVPDRFSGSGSDTDFTLKISRVETEDVGIYYCMQGSHWPPTFGQGTKVEIK | – | – | 28100 | – | – | – | – | 13800 | 104000 | 30200 | –
scFv A07 (scFv, also called 2427_01_C02) scFv: QVQLQESGPGLVKPSETLSLTCTVSGGSISSYYWSWIRQPPGKGLEWIGSIYYSGSTNYNPSLKSRVTISRDKSKNQLFLKLNSMTAADTAVYYCARDVWGSGQSFDSWGQGTLVTVSSGGGGSGGGGSGGGASNFMLTQPHSVSESPGKTVTISCTRSSGSIASNYVQWYQQRLGSSPTTVIYEHSRRPSGVPDRFSASIDSSSNSASLTISGLKTEDEADYYCQSYDVSNRVFGGGTKLTVL | 3730 nM | 79000 | 51100 | 4740 | 27700 | – | – | – | – | – | 17100
scFv A08 (scFv, also called 2432_01_D05) scFv: EVQLLESGGGLVQPGGSLRLSCAASGFTFSSYWMSWVRQAPGKGLEWVANIKQDGSEKYYVDSVKGRFTISRDNAKNSLYLQMNSLRAEDTAVYYCAKAPWYSSSPTPYGMDVWGQGTLVTVSSGGGGSGGGGSGGGASDIQMTQSPSSLSASVGDRVTITCQASQDISNYLNWYQQKPGKAPRRLIYGASTLMSGVPSRFSGSGSGTDFTLTISSLQPEDFATYYCQQSYSTPLTFGGGTKVEIK | – | – | – | – | – | – | – | 8700 | 54800 | 58100 | –
scFv B08 (scFv, also called 2436_02_F11) scFv: EVQLVQSGAEVKKPGSSVKVSCKASGGTFSSYAISWVRQAPGQGLEWMGGIIPIFGTANYAQKFQGRVTITADKSTSTAYMELSSLRSEDTAVYYCARGHYYYMDVWGQGTTVTVSSGGGGSGGGGSGGGASDIVMTQSPATLSVSPGEGATLSCRASQSVSSNLAWYQQKPGRAPRLLIYGASTRATGIPARFSGSGSGTEFTLTISSLQSEDFAVYYCQQYNNWPSFGGGTKLEIK | – | – | – | – | – | – | – | 23300 | 153000 | 61100 | –
